Like-named read-outs stand apart in the source and are kept apart here.
B1: 3C (Fab, V domains shown)
VH: QVQLQESGPGLVKPSETLSLTCTVSGFSLIGYDLNWIRQPPGKGLEWIGIIWGDGTTDYNSAVKSRVTISKDTSKNQFSLKLSSVTAADTAVYYCARGGYWYATSYYFDYWGQGTLVTVS
VL: DIQMTQSPSSLSASVGDRVTITCRASQSISNNLNWYQQKPGKAPKLLIYYTSRFHSGVPSRFSGSGSGTDFTFTISSLQPEDIATYYCQQERTLPYTFGQGTKLEIKR
B2: 8L2-6D5 (Fab, V domains shown)
VH: QVQLQESGPGLVKPSETLSLTCTVSGFSLIGYDINWIRQPPGKGLEWIGMIWGDGTTDYNSALKSRVTISKDTSKNQFSLKLSSVTAADTAVYYCARGGYYYGTSYYFDYWGQGTLVTVS
VL: DIQMTQSPSSLSASVGDRVTITCRASQDISNHLNWYQQKPGKAPKLLIYYISRFHSGVPSRFSGSGSGTDFTFTISSLQPEDIATYYCQQSKTLPYTFGQGTKLEIKR
B3: H19-L129 (Fab, V domains shown)
VH: QVQLQESGPGLVKPSETLSLTCTVSGFSLIGYDLNWIRQPPGKGLEWIGIIWGDGTTDYNSAVKSRVTISKDTSKNQFSLKLSSVTAADTAVYYCARGGYYYGTSYYFDYWGQGTLVTVS
VL: DIQMTQSPSSLSASVGDRVTITCRASQSISNNLNWYQQKPGKAPKLLIYYTSRFHSGVPSRFSGSGSGTDFTFTISSLQPEDIATYYCQQSKTLPYTFGQGTKLEIKR
B4: Fab E3 (Fab, V domains shown)
VH: QVQLQESGPGLVKPSETLSLTCTVSGFSLIGYDLNWIRQPPGKGLEWIGIIWGDGTTDYNSAVKSRVTISKDTSKNQFSLKLSSVTAADTAVYYCARGGYWYATSYYFDYWGQGTLVTVS
VL: DIQMTQSPSSLSASVGDRVTITCRASQSISNNLNWYQQKPGKAPKLLIYYTSRFHSGVPSRFSGSGSGTDFTFTISSLQPEDIATYYCQQEHTLPYTFGQGTKLEIKR

Experiments:
Assay in all cases: cell-based or functional assay
rat NGF [1] = target: T1, rat NGF (rat, UniProt P25427 122-241)
human NGF = human NGF (human, UniProt P01138 122-241)
rat NGF [2] = target: T1, rat NGF; remark: listed apart in the source
rat NGF [3] = target: T1, rat NGF; remark: listed apart in the source

Chain of human NGF (P01138 122-241 limits assumed): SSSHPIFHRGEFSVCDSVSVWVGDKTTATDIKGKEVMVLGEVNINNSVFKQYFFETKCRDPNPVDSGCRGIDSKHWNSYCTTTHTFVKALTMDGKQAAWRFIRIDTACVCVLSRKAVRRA
T1 sequence (P25427 122-241 limits assumed): as the sequence (P01138 122-241 limits assumed) above, with S3T, I6V, R9M, M37T, D60A, D65E, M92T, G94D, V117A, A120G counted along it

Molecule	IC50 (1.5 pM NGF), NGF-dependent survival of mouse E13.5 trigeminal neurons (rat NGF [1]) [pM]	IC50 (15 pM NGF), NGF-dependent survival of mouse E13.5 trigeminal neurons (rat NGF [1]) [pM]	IC50 (in the presence of 1.5 pM NGF), NGF-dependent survival of mouse E13.5 trigeminal neurons (human NGF) [pM]	IC50 (in the presence of 15 pM NGF), NGF-dependent survival of mouse E13.5 trigeminal neurons (human NGF) [pM]	concentration that totally blocked NGF-elicited survival of trigeminal neurons (human NGF) [nM]	IC50 (1.5 pM NGF), NGF-dependent survival of mouse E13.5 trigeminal neurons (rat NGF [2]) [pM]	IC50 (15 pM NGF), NGF-dependent survival of mouse E13.5 trigeminal neurons (rat NGF [2]) [pM]	IC50 in the presence of 15 pM rat NGF, trigeminal neuron survival (rat NGF [3]) [pM]
mouse antibody 911 (Fab)	34.6	161	63.5	322	20			
B1			5.6	80.9		6	31.6	
B2			462	1580		169	730	
B3			9.6	60.1		6	31	
B4			< 1.2	< 21		< 1.3	< 8.3	~31.6
